# Experiments:
# human VEGFA165 [1] = biological target: T1, human VEGFA165 (human, UniProt P15692-4 27-191); experiment: ELISA, coated human VEGFA165, anti-His detection
# T1 construct: Bought protein from two suppliers, treated as one molecule; the supplier is named under assay; also called antigen VEGFA
# Method: Antigen human VEGFA165 (label-free, purchased from Sino Biological, Cat. No.: HPLC-10008-HNAH, hereinafter referred to as VEGFA) was diluted with ELISA coating buffer to a final concentration of 0.3 μg/mL and added to a microplate at 100 μL/well for coating at 4° C. overnight. […] The solution used for antibody dilution was PBS containing 0.1% Tween-20 (pH 7.4), i.e., PBST. After being incubated at 37° C. for 1 h, the microplate was washed 3 times with PBST, and a dilution of His-Tag murine monoclonal antibody (purchased from Proteintech, Cat. No.: 66005-1-Ig) was added. The plate was further incubated at 37° C. for 1 h and washed again. Subsequently, a dilution of HRP-labeled goat anti-mouse IgG antibody (HRP-conjugated Affinipure Goat Anti-Mouse IgG (H+L), purchased from Proteintech, Cat. No.: SA00001-1) was added, and the plate was incubated at room temperature for 45 min. After the plate was washed, 100 μL of TMB (purchased from Tiangen Biotech, Cat. No.: PA107-01) was added to each well for color development at 37° C. for 15 min, followed by the addition of 50 μL of stopping solution. The absorbance at 450 nm (OD450) was measured using a microplate reader.
# human VEGFA165 [2] = biological target: T1, human VEGFA165; experiment: competitive ELISA, coated VEGFA, competitor VEGFR2-ECD-Fc 1 nM
# T1 sequence (P15692 other isoform, or with tags, fused parts or gaps limits assumed): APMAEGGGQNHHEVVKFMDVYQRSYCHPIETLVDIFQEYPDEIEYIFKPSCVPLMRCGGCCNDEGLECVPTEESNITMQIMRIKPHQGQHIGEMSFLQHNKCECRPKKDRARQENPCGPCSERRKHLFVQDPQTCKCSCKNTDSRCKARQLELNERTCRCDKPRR
Binder,EC50 (human VEGFA165 [1]) [nM],IC50 (human VEGFA165 [2]) [nM],Maximum inhibition rate (%) (human VEGFA165 [2])
"2V1-39GS (VHH, Tandem bivalent nanobody) QLQLVESGGGSVQPGGSLRLSCEVSGRTFSSYTMGWFRQAPGKEREFVVAISKGGYKYDSVSLEARFTISKDNTKNTVYLQMNSLKPEDTAVYYCAATRAYGSSRLRLADTYEYWGQGTQVTVSSGGGGSGGGSGGGGSGGGGSGGGGSGGGGSGGGGSGGGGSQLQLVESGGGSVQPGGSLRLSCEVSGRTFSSYTMGWFRQAPGKEREFVVAISKGGYKYDSVSLEARFTISKDNTKNTVYLQMNSLKPEDTAVYYCAATRAYGSSRLRLADTYEYWGQGTQVTVSS",0.18,–,–
"2V1-30GS (VHH, Tandem bivalent nanobody) QLQLVESGGGSVQPGGSLRLSCEVSGRTFSSYTMGWFRQAPGKEREFVVAISKGGYKYDSVSLEARFTISKDNTKNTVYLQMNSLKPEDTAVYYCAATRAYGSSRLRLADTYEYWGQGTQVTVSSGGGGSGGGSGGGGSGGGSGGGSGGGSGGGSQLQLVESGGGSVQPGGSLRLSCEVSGRTFSSYTMGWFRQAPGKEREFVVAISKGGYKYDSVSLEARFTISKDNTKNTVYLQMNSLKPEDTAVYYCAATRAYGSSRLRLADTYEYWGQGTQVTVSS",0.22,–,–
"2V15-30GS (VHH, Tandem bivalent nanobody) QLQLVESGGGSVQPGGSLRLSCEVSGRTFASYTMGWFRQAPGKEREFVVAISKGGYKYDSVSLEARFTISKDNTKNTVYLQMNSLKPEDTAVYYCAGTRAYGSSRLRLAETYEYWGQGTQVTVSSGGGGSGGGSGGGGSGGGSGGGSGGGSGGGSQLQLVESGGGSVQPGGSLRLSCEVSGRTFASYTMGWFRQAPGKEREFVVAISKGGYKYDSVSLEARFTISKDNTKNTVYLQMNSLKPEDTAVYYCAGTRAYGSSRLRLAETYEYWGQGTQVTVSS",0.27,1.6,94.1
"2V1-6A (VHH, Tandem bivalent nanobody) QLQLVESGGGSVQPGGSLRLSCEVSGRTFSSYTMGWFRQAPGKEREFVVAISKGGYKYDSVSLEARFTISKDNTKNTVYLQMNSLKPEDTAVYYCAATRAYGSSRLRLADTYEYWGQGTQVTVSSAAAAAAQLQLVESGGGSVQPGGSLRLSCEVSGRTFSSYTMGWFRQAPGKEREFVVAISKGGYKYDSVSLEARFTISKDNTKNTVYLQMNSLKPEDTAVYYCAATRAYGSSRLRLADTYEYWGQGTQVTVSS",0.33,–,–
"2V1-EAAAK-Turn (VHH, Tandem bivalent nanobody) QLQLVESGGGSVQPGGSLRLSCEVSGRTFSSYTMGWFRQAPGKEREFVVAISKGGYKYDSVSLEARFTISKDNTKNTVYLQMNSLKPEDTAVYYCAATRAYGSSRLRLADTYEYWGQGTQVTVSSPDSEAAAKEAAAKEAAAKEAAAKEAAAKPDGSSQLQLVESGGGSVQPGGSLRLSCEVSGRTFSSYTMGWFRQAPGKEREFVVAISKGGYKYDSVSLEARFTISKDNTKNTVYLQMNSLKPEDTAVYYCAATRAYGSSRLRLADTYEYWGQGTQVTVSS",0.31,1.56,96.8
"2V15-EAAAK-Turn (VHH, Tandem bivalent nanobody) QLQLVESGGGSVQPGGSLRLSCEVSGRTFASYTMGWFRQAPGKEREFVVAISKGGYKYDSVSLEARFTISKDNTKNTVYLQMNSLKPEDTAVYYCAGTRAYGSSRLRLAETYEYWGQGTQVTVSSPDSEAAAKEAAAKEAAAKEAAAKEAAAKPDGSSQLQLVESGGGSVQPGGSLRLSCEVSGRTFASYTMGWFRQAPGKEREFVVAISKGGYKYDSVSLEARFTISKDNTKNTVYLQMNSLKPEDTAVYYCAGTRAYGSSRLRLAETYEYWGQGTQVTVSS",0.33,1.76,96.7
"2V1-(AP)10 (VHH, Tandem bivalent nanobody) QLQLVESGGGSVQPGGSLRLSCEVSGRTFSSYTMGWFRQAPGKEREFVVAISKGGYKYDSVSLEARFTISKDNTKNTVYLQMNSLKPEDTAVYYCAATRAYGSSRLRLADTYEYWGQGTQVTVSSPDSAPAPAPAPAPAPAPAPAPAPDGSSQLQLVESGGGSVQPGGSLRLSCEVSGRTFSSYTMGWFRQAPGKEREFVVAISKGGYKYDSVSLEARFTISKDNTKNTVYLQMNSLKPEDTAVYYCAATRAYGSSRLRLADTYEYWGQGTQVTVSS",0.18,–,–
"2V1-3A (VHH, Tandem bivalent nanobody) QLQLVESGGGSVQPGGSLRLSCEVSGRTFSSYTMGWFRQAPGKEREFVVAISKGGYKYDSVSLEARFTISKDNTKNTVYLQMNSLKPEDTAVYYCAATRAYGSSRLRLADTYEYWGQGTQVTVSSAAAQLQLVESGGGSVQPGGSLRLSCEVSGRTFSSYTMGWFRQAPGKEREFVVAISKGGYKYDSVSLEARFTISKDNTKNTVYLQMNSLKPEDTAVYYCAATRAYGSSRLRLADTYEYWGQGTQVTVSS",0.25,–,–
"2V1-3GS (VHH, Tandem bivalent nanobody) QLQLVESGGGSVQPGGSLRLSCEVSGRTFSSYTMGWFRQAPGKEREFVVAISKGGYKYDSVSLEARFTISKDNTKNTVYLQMNSLKPEDTAVYYCAATRAYGSSRLRLADTYEYWGQGTQVTVSSGGSQLQLVESGGGSVQPGGSLRLSCEVSGRTFSSYTMGWFRQAPGKEREFVVAISKGGYKYDSVSLEARFTISKDNTKNTVYLQMNSLKPEDTAVYYCAATRAYGSSRLRLADTYEYWGQGTQVTVSS",–,3,91
"2V15-20S (VHH, Tandem bivalent nanobody) QLQLVESGGGSVQPGGSLRLSCEVSGRTFASYTMGWFRQAPGKEREFVVAISKGGYKYDSVSLEARFTISKDNTKNTVYLQMNSLKPEDTAVYYCAGTRAYGSSRLRLAETYEYWGQGTQVTVSSSSSSSSSSSSSSSSSSSSSSQLQLVESGGGSVQPGGSLRLSCEVSGRTFASYTMGWFRQAPGKEREFVVAISKGGYKYDSVSLEARFTISKDNTKNTVYLQMNSLKPEDTAVYYCAGTRAYGSSRLRLAETYEYWGQGTQVTVSS",0.43,4.38,89.8
"2V15-25GS (VHH, Tandem bivalent nanobody) QLQLVESGGGSVQPGGSLRLSCEVSGRTFASYTMGWFRQAPGKEREFVVAISKGGYKYDSVSLEARFTISKDNTKNTVYLQMNSLKPEDTAVYYCAGTRAYGSSRLRLAETYEYWGQGTQVTVSSGGGGSGGGSGGGSGGGSGGGSGGGSQLQLVESGGGSVQPGGSLRLSCEVSGRTFASYTMGWFRQAPGKEREFVVAISKGGYKYDSVSLEARFTISKDNTKNTVYLQMNSLKPEDTAVYYCAGTRAYGSSRLRLAETYEYWGQGTQVTVSS",0.24,1.66,94.5
"2V1-(AP)5 (VHH, Tandem bivalent nanobody) QLQLVESGGGSVQPGGSLRLSCEVSGRTFSSYTMGWFRQAPGKEREFVVAISKGGYKYDSVSLEARFTISKDNTKNTVYLQMNSLKPEDTAVYYCAATRAYGSSRLRLADTYEYWGQGTQVTVSSPDSAPAPAPAPAPDGSSQLQLVESGGGSVQPGGSLRLSCEVSGRTFSSYTMGWFRQAPGKEREFVVAISKGGYKYDSVSLEARFTISKDNTKNTVYLQMNSLKPEDTAVYYCAATRAYGSSRLRLADTYEYWGQGTQVTVSS",0.19,–,–
"2V1-NL (VHH, Tandem bivalent nanobody; also called bivalent V1 without a linker) QLQLVESGGGSVQPGGSLRLSCEVSGRTFSSYTMGWFRQAPGKEREFVVAISKGGYKYDSVSLEARFTISKDNTKNTVYLQMNSLKPEDTAVYYCAATRAYGSSRLRLADTYEYWGQGTQVTVSSQLQLVESGGGSVQPGGSLRLSCEVSGRTFSSYTMGWFRQAPGKEREFVVAISKGGYKYDSVSLEARFTISKDNTKNTVYLQMNSLKPEDTAVYYCAATRAYGSSRLRLADTYEYWGQGTQVTVSS",0.29,–,–
"2V1-EAAAK-Rigid (VHH, Tandem bivalent nanobody) QLQLVESGGGSVQPGGSLRLSCEVSGRTFSSYTMGWFRQAPGKEREFVVAISKGGYKYDSVSLEARFTISKDNTKNTVYLQMNSLKPEDTAVYYCAATRAYGSSRLRLADTYEYWGQGTQVTVSSLAEAAAKEAAAKEAAAKEAAAKEAAAKAAAQLQLVESGGGSVQPGGSLRLSCEVSGRTFSSYTMGWFRQAPGKEREFVVAISKGGYKYDSVSLEARFTISKDNTKNTVYLQMNSLKPEDTAVYYCAATRAYGSSRLRLADTYEYWGQGTQVTVSS",0.22,–,–
"2V15-9S (VHH, Tandem bivalent nanobody) QLQLVESGGGSVQPGGSLRLSCEVSGRTFASYTMGWFRQAPGKEREFVVAISKGGYKYDSVSLEARFTISKDNTKNTVYLQMNSLKPEDTAVYYCAGTRAYGSSRLRLAETYEYWGQGTQVTVSSSSSSSSSSSQLQLVESGGGSVQPGGSLRLSCEVSGRTFASYTMGWFRQAPGKEREFVVAISKGGYKYDSVSLEARFTISKDNTKNTVYLQMNSLKPEDTAVYYCAGTRAYGSSRLRLAETYEYWGQGTQVTVSS",0.21,3.53,88.8
"2V15-20GS (VHH, Tandem bivalent nanobody) QLQLVESGGGSVQPGGSLRLSCEVSGRTFASYTMGWFRQAPGKEREFVVAISKGGYKYDSVSLEARFTISKDNTKNTVYLQMNSLKPEDTAVYYCAGTRAYGSSRLRLAETYEYWGQGTQVTVSSGGGGSGGGSGGGSGGGSGGSQLQLVESGGGSVQPGGSLRLSCEVSGRTFASYTMGWFRQAPGKEREFVVAISKGGYKYDSVSLEARFTISKDNTKNTVYLQMNSLKPEDTAVYYCAGTRAYGSSRLRLAETYEYWGQGTQVTVSS",0.28,2.03,94.2

# From patent US20260234232A1 (QUAERITE BIOPHARM RESEARCH BEIJING, published 2026)
